US20220325261

Tested on: beta-catenin

## GST-PTPRS D1
  tyrosine phosphorylation of immunopurified beta-catenin (Western blot): decreased tyrosine phosphorylation of immunopurified beta-catenin in the presence of GST-PTPRS D1 compared to GST alone
